Laboratory results reported in the supplement of paper PMC10065799, “High-throughput profiling of sequence recognition by tyrosine kinases and SH2 domains using bacterial peptide display” (eLife, 2023).

Columns and labels:
Grb2 SH2 = Grb2 SH2 (UniProt P62993); experiment: SH2 binding enrichment of the phosphorylated peptide, bacterial display (enrichment ratio); higher = better substrate or ligand; peptides without Tyr show the background
SHP2-C SH2 = experiment: as above
c-Src SH2 = experiment: as above
Fyn = Fyn (UniProt P06241); experiment: phosphorylation enrichment, bacterial display (enrichment ratio); higher = better substrate or ligand; peptides without Tyr show the background
FGFR1 = FGFR1 (UniProt P11362); experiment: as above
EPHB2 = EPHB2 (UniProt P29323); experiment: as above
Fer (mouse) = experiment: as above
Fes = Fes (UniProt P07332); experiment: as above
Hck = Hck (UniProt P08631); experiment: as above
MERTK = MERTK (UniProt Q12866); experiment: as above
c-Abl (mouse) = experiment: as above
FGFR3 = FGFR3 (UniProt P22607); experiment: as above
EPHB1 = EPHB1 (UniProt P54762); experiment: as above
c-Src = experiment: as above
AncSZ = experiment: as above
Jak2 = Jak2 (UniProt O60674); experiment: as above
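For SH2 binding enrichment of the phosphorylated peptide, bacterial display in this document: peptide library displayed on the E. coli surface as eCPX fusions, selected cells deep-sequenced, score is each peptide's frequency after selection divided by its frequency in the input.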
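For phosphorylation enrichment, bacterial display in this document: 11-residue human phosphosite peptides and single-mutation variants displayed on the E. coli surface, counted by deep sequencing, each peptide's frequency after selection divided by its frequency in the unselected input library; frequency after pTyr selection over input frequency; kinase dosed for 20-30% of maximal phosphorylation in three min.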

Chain of MERTK (Q12866 whole entry, looked up): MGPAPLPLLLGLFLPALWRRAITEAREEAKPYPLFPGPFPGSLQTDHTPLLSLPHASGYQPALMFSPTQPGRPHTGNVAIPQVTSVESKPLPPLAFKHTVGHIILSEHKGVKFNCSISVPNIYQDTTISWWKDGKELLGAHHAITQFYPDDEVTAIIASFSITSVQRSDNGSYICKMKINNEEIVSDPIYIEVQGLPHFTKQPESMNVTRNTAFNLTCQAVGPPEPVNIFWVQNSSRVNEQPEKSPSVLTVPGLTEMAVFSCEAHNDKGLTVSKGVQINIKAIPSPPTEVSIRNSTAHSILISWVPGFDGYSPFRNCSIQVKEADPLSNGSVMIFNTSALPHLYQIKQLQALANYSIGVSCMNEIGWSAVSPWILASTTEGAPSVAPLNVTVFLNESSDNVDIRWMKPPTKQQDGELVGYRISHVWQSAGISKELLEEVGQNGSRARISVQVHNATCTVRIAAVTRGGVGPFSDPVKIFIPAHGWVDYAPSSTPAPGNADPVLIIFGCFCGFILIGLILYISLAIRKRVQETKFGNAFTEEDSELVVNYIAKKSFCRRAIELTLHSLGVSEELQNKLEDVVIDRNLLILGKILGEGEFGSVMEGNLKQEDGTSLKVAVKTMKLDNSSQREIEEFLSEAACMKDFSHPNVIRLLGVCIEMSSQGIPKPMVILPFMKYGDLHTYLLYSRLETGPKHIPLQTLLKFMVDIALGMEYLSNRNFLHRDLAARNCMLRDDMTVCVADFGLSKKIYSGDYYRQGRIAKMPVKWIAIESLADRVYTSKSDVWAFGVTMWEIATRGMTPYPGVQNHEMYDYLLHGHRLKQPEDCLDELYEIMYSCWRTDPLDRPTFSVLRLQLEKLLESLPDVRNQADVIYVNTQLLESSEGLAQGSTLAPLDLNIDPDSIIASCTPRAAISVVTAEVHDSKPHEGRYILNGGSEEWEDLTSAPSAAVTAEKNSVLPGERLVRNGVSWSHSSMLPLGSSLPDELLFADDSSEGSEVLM
Chain of EPHB2 (P29323 whole entry, looked up): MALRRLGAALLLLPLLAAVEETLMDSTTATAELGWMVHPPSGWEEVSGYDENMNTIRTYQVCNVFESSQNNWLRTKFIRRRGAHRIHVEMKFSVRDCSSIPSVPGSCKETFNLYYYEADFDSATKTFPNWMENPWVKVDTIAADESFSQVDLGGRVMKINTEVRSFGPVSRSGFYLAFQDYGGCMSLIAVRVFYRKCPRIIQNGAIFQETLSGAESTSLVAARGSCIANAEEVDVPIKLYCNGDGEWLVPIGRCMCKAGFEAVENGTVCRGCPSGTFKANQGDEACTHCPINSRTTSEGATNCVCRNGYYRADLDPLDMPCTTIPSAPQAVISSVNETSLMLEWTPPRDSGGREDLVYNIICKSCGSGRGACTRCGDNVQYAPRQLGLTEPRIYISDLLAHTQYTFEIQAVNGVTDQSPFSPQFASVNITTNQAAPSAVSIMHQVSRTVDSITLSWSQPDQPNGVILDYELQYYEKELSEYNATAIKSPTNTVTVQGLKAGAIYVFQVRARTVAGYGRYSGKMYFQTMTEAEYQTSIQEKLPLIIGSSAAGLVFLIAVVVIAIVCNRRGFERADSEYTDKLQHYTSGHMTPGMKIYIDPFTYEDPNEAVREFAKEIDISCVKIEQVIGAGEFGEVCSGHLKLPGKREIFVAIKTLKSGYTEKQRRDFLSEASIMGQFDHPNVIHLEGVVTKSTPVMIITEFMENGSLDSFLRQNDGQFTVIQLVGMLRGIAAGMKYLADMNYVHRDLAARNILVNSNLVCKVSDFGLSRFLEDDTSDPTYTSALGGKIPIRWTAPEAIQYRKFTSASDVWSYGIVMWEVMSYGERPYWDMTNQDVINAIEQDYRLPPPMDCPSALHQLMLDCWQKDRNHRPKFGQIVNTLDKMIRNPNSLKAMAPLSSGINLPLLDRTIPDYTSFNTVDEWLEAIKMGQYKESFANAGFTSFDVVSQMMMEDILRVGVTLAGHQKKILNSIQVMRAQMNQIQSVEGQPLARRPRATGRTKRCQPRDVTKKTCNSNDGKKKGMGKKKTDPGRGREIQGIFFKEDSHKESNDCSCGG
Chain of Hck (P08631 whole entry, looked up): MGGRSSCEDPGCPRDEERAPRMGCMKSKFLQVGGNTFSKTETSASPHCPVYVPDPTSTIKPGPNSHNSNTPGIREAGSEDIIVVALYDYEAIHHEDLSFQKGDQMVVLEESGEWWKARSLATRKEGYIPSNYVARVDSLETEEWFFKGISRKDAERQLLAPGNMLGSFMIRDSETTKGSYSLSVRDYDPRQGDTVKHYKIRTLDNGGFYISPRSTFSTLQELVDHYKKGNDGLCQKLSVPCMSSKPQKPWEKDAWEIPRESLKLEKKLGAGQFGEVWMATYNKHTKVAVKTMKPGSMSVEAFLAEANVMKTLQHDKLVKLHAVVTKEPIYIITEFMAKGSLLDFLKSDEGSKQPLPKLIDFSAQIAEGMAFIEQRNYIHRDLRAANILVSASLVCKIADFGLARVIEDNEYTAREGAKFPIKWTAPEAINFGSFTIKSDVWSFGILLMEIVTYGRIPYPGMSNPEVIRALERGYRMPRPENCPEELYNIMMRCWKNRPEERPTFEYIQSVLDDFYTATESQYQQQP
Chain of Jak2 (O60674 whole entry, looked up, the tested form may be a part): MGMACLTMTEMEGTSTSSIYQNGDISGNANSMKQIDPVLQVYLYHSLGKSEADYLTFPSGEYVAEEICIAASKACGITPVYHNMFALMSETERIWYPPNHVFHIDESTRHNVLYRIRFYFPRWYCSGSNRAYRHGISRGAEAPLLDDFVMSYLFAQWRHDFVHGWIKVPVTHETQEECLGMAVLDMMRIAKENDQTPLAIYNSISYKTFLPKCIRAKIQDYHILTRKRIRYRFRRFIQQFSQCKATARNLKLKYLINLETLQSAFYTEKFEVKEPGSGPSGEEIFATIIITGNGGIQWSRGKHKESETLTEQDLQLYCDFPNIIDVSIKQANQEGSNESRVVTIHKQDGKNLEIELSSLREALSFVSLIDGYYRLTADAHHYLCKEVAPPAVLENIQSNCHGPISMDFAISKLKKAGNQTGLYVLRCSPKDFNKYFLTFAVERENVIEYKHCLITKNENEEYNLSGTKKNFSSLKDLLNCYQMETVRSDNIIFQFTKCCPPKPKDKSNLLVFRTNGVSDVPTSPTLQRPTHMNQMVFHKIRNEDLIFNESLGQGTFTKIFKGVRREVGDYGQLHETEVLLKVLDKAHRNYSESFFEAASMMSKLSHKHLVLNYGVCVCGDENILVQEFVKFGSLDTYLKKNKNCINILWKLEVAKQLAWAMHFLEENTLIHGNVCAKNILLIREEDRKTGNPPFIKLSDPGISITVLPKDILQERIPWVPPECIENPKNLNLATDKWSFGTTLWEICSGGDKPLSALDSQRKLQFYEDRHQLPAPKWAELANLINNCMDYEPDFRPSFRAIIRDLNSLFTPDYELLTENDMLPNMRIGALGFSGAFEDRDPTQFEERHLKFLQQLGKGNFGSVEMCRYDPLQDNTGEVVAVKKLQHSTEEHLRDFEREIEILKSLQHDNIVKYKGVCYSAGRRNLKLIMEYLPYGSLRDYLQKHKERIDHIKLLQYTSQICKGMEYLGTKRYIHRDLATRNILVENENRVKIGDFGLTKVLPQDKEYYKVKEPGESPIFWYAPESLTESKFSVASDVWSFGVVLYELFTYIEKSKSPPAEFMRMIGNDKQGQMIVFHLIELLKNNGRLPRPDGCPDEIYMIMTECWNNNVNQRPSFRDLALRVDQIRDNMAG
Chain of EPHB1 (P54762 whole entry, looked up): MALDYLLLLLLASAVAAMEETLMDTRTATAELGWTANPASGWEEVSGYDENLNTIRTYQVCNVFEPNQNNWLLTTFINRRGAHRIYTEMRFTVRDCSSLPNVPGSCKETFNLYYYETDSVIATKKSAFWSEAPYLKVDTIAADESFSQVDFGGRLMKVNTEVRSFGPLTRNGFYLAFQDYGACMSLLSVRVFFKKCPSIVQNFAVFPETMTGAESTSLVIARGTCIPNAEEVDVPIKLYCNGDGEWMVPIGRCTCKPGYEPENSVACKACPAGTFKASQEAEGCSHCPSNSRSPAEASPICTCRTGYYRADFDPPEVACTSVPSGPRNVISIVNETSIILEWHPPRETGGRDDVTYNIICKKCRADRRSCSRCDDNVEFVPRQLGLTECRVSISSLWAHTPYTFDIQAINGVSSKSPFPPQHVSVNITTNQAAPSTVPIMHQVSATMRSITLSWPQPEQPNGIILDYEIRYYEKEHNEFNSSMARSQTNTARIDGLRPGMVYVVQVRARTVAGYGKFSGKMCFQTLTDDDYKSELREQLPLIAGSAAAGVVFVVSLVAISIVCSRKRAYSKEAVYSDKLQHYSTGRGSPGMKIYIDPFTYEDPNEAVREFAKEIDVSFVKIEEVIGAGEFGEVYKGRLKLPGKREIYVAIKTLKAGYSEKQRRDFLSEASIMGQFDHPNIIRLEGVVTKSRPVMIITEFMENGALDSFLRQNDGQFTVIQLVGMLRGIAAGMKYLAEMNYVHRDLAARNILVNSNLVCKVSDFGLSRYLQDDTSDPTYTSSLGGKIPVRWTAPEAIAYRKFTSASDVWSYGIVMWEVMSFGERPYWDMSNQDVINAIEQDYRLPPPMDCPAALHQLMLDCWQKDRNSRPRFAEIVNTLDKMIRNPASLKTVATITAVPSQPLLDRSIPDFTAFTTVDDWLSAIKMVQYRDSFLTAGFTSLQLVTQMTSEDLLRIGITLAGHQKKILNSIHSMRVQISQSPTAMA

| SH2 binding enrichment (Grb2 SH2) | SH2 binding enrichment (SHP2-C SH2) | SH2 binding enrichment (c-Src SH2) | Sequence | phosphorylation enrichment (Fyn) | phosphorylation enrichment (FGFR1) | phosphorylation enrichment (EPHB2) | phosphorylation enrichment (Fer (mouse)) | phosphorylation enrichment (Fes) | phosphorylation enrichment (Hck) | phosphorylation enrichment (MERTK) | phosphorylation enrichment (c-Abl (mouse)) | phosphorylation enrichment (FGFR3) | phosphorylation enrichment (EPHB1) | phosphorylation enrichment (c-Src) | phosphorylation enrichment (AncSZ) | phosphorylation enrichment (Jak2) |
| --- | --- | --- | --- | --- | --- | --- | --- | --- | --- | --- | --- | --- | --- | --- | --- | --- |
| 0.824 | 0.852 | 0.515 | VGSEDYGWDLT [SPTAN1_Y1792_R1794W] | 0.384 | 0.489 | 0.732 | 0.463 | 1.16 | 0.443 | 0.36 | 0.724 | 0.726 | 0.602 | 0.419 | 1.2 | 0.967 |
| 0.94 | 0.628 | 1.56 | VHSGTYQVMVR [MYBPC3_Y1043_T1046M] | 0.539 | 0.456 | 0.648 | 0.343 | 0.637 | 1.98 | 1.27 | 0.489 | 0.468 | 2.04 | 0.988 | 0.711 | 0.467 |
| 26.7 | 1.89 | 10.5 | VLNHAYENLTR [SYNE2_Y3255_D3253H] | 0.33 | 0.494 | 0.4 | 0.417 | 0.579 | 0.383 | 0.303 | 0.5 | 0.625 | 0.366 | 0.405 | 0.565 | 0.507 |

The next lines start with the sequence.

| Sequence | SH2 binding enrichment (Grb2 SH2) | SH2 binding enrichment (SHP2-C SH2) | SH2 binding enrichment (c-Src SH2) | phosphorylation enrichment (Fyn) | phosphorylation enrichment (FGFR1) | phosphorylation enrichment (EPHB2) | phosphorylation enrichment (Fer (mouse)) | phosphorylation enrichment (Fes) | phosphorylation enrichment (Hck) | phosphorylation enrichment (MERTK) | phosphorylation enrichment (c-Abl (mouse)) | phosphorylation enrichment (FGFR3) | phosphorylation enrichment (EPHB1) | phosphorylation enrichment (c-Src) | phosphorylation enrichment (AncSZ) | phosphorylation enrichment (Jak2) |
| --- | --- | --- | --- | --- | --- | --- | --- | --- | --- | --- | --- | --- | --- | --- | --- | --- |
| VIECSYTSADG [DHCR7_Y382] | 0.837 | 0.601 | 1.63 | 0.478 | 0.544 | 0.538 | 0.496 | 1.39 | 0.471 | 0.423 | 0.825 | 0.623 | 0.524 | 0.556 | 1.02 | 0.934 |
| VITDYYVDMKF [MPP4_Y567] | 0.993 | 0.6 | 1.31 | 0.881 | 7.13 | 1.98 | 1.4 | 1.23 | 0.929 | 1.15 | 1.18 | 5.31 | 3.65 | 0.88 | 1.61 | 2.25 |
| VKANTYEKFWL [GATM_Y100_P105L_YF] | 0.819 | 0.807 | 0.794 | 0.803 | 0.382 | 0.545 | 2.9 | 1.07 | 0.684 | 1.19 | 0.672 | 0.722 | 0.562 | 1.11 | 0.887 | 0.821 |
| VKMLEYRGKDV [CASP5_Y74_L75R] | 0.618 | 0.628 | 0.386 | 0.476 | 0.489 | 0.416 | 0.495 | 0.737 | 0.46 | 0.443 | 0.523 | 0.473 | 0.459 | 0.465 | 0.68 | 0.792 |
| VLAHKYHGGGG [HBB_Y146_A141V] | 0.939 | 0.852 | 0.464 | 0.366 | 0.349 | 0.362 | 0.366 | 0.498 | 0.405 | 0.352 | 0.405 | 0.352 | 0.354 | 0.363 | 0.376 | 0.434 |
| VLTSTYRGGGG [HBA1_Y141_K140T] | 0.84 | 0.645 | 0.452 | 0.38 | 0.361 | 0.376 | 0.385 | 0.628 | 0.377 | 0.367 | 0.425 | 0.483 | 0.315 | 0.394 | 0.575 | 0.509 |
